Data reported in article PMC7924223, “Functionalization of the BCL6 BTB domain into a noncovalent crystallization chaperone” (IUCrJ, 2021).

Target: BCL6 BTB domain (BCL6^BTB), residues 6-129 with C8Q, C67R and C84N (human, UniProt P41182 6-129, C8Q | C67R | C84N)
Experiment: crystal structure; co-crystallization at 298 K; BCL6 proteins at 300 µM (monomer) in 20 mM HEPES pH 7.5, 300 mM NaCl, 3 mM β-mercaptoethanol; NCoR1^BBD1 peptide in 4:1, NCoR1^BBD2 peptide in 8:1 molar excess; the complex with nebulin^SH3-NCoR1^BBD1 purified by size-exclusion chromatography before crystallization
Details: both partners purified

binding result: binds
B1: NCoR1^BBD1 peptide (high-affinity BCL6-binding domain 1 of the corepressor NCoR1) (peptide)
peptide: GITTIKEMGRSIHEIPR
notes: source: synthetic peptide (GL Biochem Shanghai Ltd)
